Results reported in patent US20230067225A1.

B1: uTEV3, full-length (HIS6-MBP-TEV I138T S153N T180A, S219V) (protein)
chain: GESLFKGPRDYNPISSTICHLTNESDGHTTSLYGIGFGPFIITNKHLFRRNNGTLLVQSLHGVFKVKNTTTLQQHLIDGRDMIIIRMPKDFPPFPQKLKFREPQREERICLVTTNFQTKSMSSMVSDTSCTFPSSDGTFWKHWIQTKDGQCGNPLVSTRDGFIVGIHSASNFTNTNNYFASVPKNFMELLTNQEAQQWVSGWRLNADSVLWGGHKVFMVKPEEPFQPVKEATQLMNELVYSQ
B2: wild-type TEVΔ (TEVΔ-S219V), purified with His tag from bacteria (protein)
chain: HHHHHHGESLFKGPRDYNPISSTICHLTNESDGHTTSLYGIGFGPFIITNKHLFRRNNGTLLVQSLHGVFKVKNTTTLQQHLIDGRDMIIIRMPKDFPPFPQKLKFREPQREERICLVTTNFQTKSMSSMVSDTSCTFPSSDGIFWKHWIQTKDGQCGSPLVSTRDGFIVGIHSASNFTNTNNYFTSVPKNFMELLTNQEAQQWVSGWRLNADSVLWGGHKVFMV
B3: uTEV2Δ (TEVΔ/S219V + T30A + S153N), purified with His tag from bacteria (protein)
chain: HHHHHHGESLFKGPRDYNPISSTICHLTNESDGHTASLYGIGFGPFIITNKHLFRRNNGTLLVQSLHGVFKVKNTTTLQQHLIDGRDMIIIRMPKDFPPFPQKLKFREPQREERICLVTTNFQTKSMSSMVSDTSCTFPSSDGIFWKHWIQTKDGQCGNPLVSTRDGFIVGIHSASNFTNTNNYFTSVPKNFMELLTNQEAQQWVSGWRLNADSVLWGGHKVFMV
B4: uTEV1Δ (TEVΔ/S219V + S153N), purified with His tag from bacteria (protein)
chain: HHHHHHGESLFKGPRDYNPISSTICHLTNESDGHTTSLYGIGFGPFIITNKHLFRRNNGTLLVQSLHGVFKVKNTTTLQQHLIDGRDMIIIRMPKDFPPFPQKLKFREPQREERICLVTTNFQTKSMSSMVSDTSCTFPSSDGIFWKHWIQTKDGQCGNPLVSTRDGFIVGIHSASNFTNTNNYFTSVPKNFMELLTNQEAQQWVSGWRLNADSVLWGGHKVFMV

Assays:
[1] = target: B2Ar-heLOV-TEVcs-Gal4-V5 (SPARK transcription factor component) (UniProt P07550); experiment: cell-based or functional assay
[2] = target: CD4-HA-CIBN-2xMKII-NNES-heLOV-GAL4 (FLARE transcription factor component) (Arabidopsis thaliana); experiment: cell-based or functional assay
[3] = target: MBP-TEVcs(ENLYFQ/S)-eGFP [MBP: P0AEX9]; experiment: Michaelis-Menten fit of the in-gel fluorescence cleavage assay, purified protease with the substrate titrated; the filing defines affinity as Km
[4] = target: MBP-TEVcs(ENLYFQ/S)-eGFP [MBP: P0AEX9]
[5] = target: MBP-TEVcs(ENLYFQ/M)-eGFP [MBP: P0AEX9]

Molecule | turnover rate (kapp) [5] [s⁻¹] | turnover rate (kapp), fold against wild-type TEVΔ [5] | also measured
HA-arrestin-TEVΔ/S153N (SPARK protease component with uTEV1Δ) (enzyme) |  |  | SPARK mCherry reporter, +/-agonist signal ratio [1]: 20.7
eGFP-CaM-TEVΔ/S219V + S153N (FLARE protease component with uTEV1Δ) (enzyme) |  |  | FLARE mCherry reporter, high/low Ca+2 signal ratio [2]: 12; FLARE mCherry reporter, signal-to-background ratio [2]: 12.2
B1 |  |  | fold improvement of Km against wild-type TEV [3]: Km improved by 3-fold; kcat/Km, fold against wild-type TEV [4]: a 2.8-fold increase in kcat/Km
B2 | 0.01 |  | 
B3 | 0.062 | 5.4- and 6.2-fold higher than wild-type | 
B4 | 0.054 | 5.4- and 6.2-fold higher than wild-type | 
